This data set concerns the molecule itself. As to the kind of experiment: crystal structure.

The values that follow come from paper PMC5449587 (Nucleic Acids Research, 2017).

B1: Burkholderia thailandensis deoxyribonuclease II (enzyme)
chain: MAISPRDEQNRSVDLWFAYKVPKLTKDADSDSASGYEYVYYDRQVGAVQKSPNLMNDPKGALFYTLDSVFGDPGDTTGWILYNDEMPADANRSNNATLGHTKGVIAFDIASSSALWLLHSWPKYASPSVPGVPTPLYGQTFLCLSLDLATAGKLAAQMALHQQPQVYLPRTGGLDHTSPLYALTQPLNASAPGDSDSLDFKTRGGVPFKVIAKNRKWGKDFWNDLVGPTLKADMYVETWIRGKIPPVLDSDGVHKTYDIKFIDLRKLGAPWAWPETQDHAKWGITTTDNWVCVGDINRMVTQEKRGGGTIAFQDPKLWKALCETDLIIPPPGKTDAQARAMIRKTHEPAE
Regarding B1, the binding result is “binds”.
